Data reported in paper PMC7289602, “Measuring ligand-cell surface receptor affinities with axial line-scanning fluorescence correlation spectroscopy” (eLife, 2020).

Tests used:
[1] = target: LRP6-mCherry, stably expressed in NCI-H1703 cells (human) (UniProt O75581); assay: dual-color axial line-scanning fluorescence cross-correlation spectroscopy (axial lsFCS); two receptors in the plasma membrane of live NCI-H1703 cells stably expressing LRP6-mCherry and transiently xKremen2-eGFP; fractions that co-diffuse from the ratios of cross- and autocorrelation amplitudes
[2] = target: T1, LRP6-mCherry, stably expressed in NCI-H1703 cells (human, UniProt O75581 20-1613); assay: dual-color axial line-scanning fluorescence cross-correlation spectroscopy (axial lsFCS); the same data as a3 (NCI-H1703 stably expressing LRP6-mCherry), analysed without prior background correction of the intensity time traces; details: partners not purified
T1 construct: lipoprotein-receptor related protein 6 (LRP6), human; the ORF of the hLRP6-mCherry fusion inserted into pEF1a-IRES-Neo; Same fusion ORF as m4 and m5; receptor density 45 ± 23 per µm^2; also called hLRP6-mCherry; exogenous LRP6-mCherry; source: NCI-H1703, stably transfected clonal line (pEF1a-hLRP6-mCherry-IRES-Neo, G418 selection), on live cells; not shown: mCherry, C-terminal, kept

[3] = target: T2, LRP6-mCherry, transiently expressed in HEK293T cells (human, UniProt O75581 20-1613); assay: dual-color axial line-scanning fluorescence cross-correlation spectroscopy (axial lsFCS); live HEK293T cells transiently expressing the receptor, ligand in conditioned medium at varied concentrations (0.01-220 nM), 37°C, 5% CO2, 60 s scans, fit of Γ(CL) with Equation 5; details: partners not purified
T2 construct: lipoprotein-receptor related protein 6 (LRP6), human; plasmid pCS2+hLRP6-mCherry (Dörlich et al., 2015); Receptor density 370 ± 150 or 1080 ± 470 per µm^2 in the two series; MesD was co-transfected; also called hLRP6-mCherry; lipoprotein-receptor related protein 6; source: HEK293T, transiently transfected (pCS2+hLRP6-mCherry, with MesD 1:6), on live cells; not shown: mCherry, C-terminal, kept

[4] = target: T3, endogenously tagged LRP6-mCherry in CRISPR/Cas9 edited NCI-H1703 cells (human (endogenous in NCI-H1703), UniProt O75581 20-1613); assay: dual-color axial line-scanning fluorescence cross-correlation spectroscopy (axial lsFCS); live CRISPR/Cas9 edited NCI-H1703 cells with endogenously tagged LRP6, ligand in conditioned medium at varied concentrations, 37°C, 5% CO2, 60 s scans, fit of Γ(CL) with Equation 5; details: partners not purified
T3 construct: lipoprotein-receptor related protein 6 (LRP6), human, expressed from the endogenous locus of NCI-H1703 cells; Untagged LRP6 from the unedited allele is also present; receptor density 18 ± 9 per µm^2; source: NCI-H1703, CRISPR/Cas9 edited at the endogenous LRP6 locus (exon 23), heterozygous clone, on live cells

[5] = target: T4, endogenously tagged LRP6-tdTomato in CRISPR/Cas9 edited NCI-H1703 cells (human (endogenous in NCI-H1703), UniProt O75581 20-1613); assay: as above; details: partners not purified
T4 construct: lipoprotein-receptor related protein 6 (LRP6), human, expressed from the endogenous locus of NCI-H1703 cells; Untagged LRP6 from the unedited allele is also present; receptor density 21 ± 15 per µm^2; source: NCI-H1703, CRISPR/Cas9 edited at the endogenous LRP6 locus (exon 23), heterozygous clone, on live cells; not shown: tdTomato (after the linker AS from the NheI site), C-terminal, kept

[6] = target: T2, LRP6-mCherry, transiently expressed in …; assay: time-lapse spinning disk confocal imaging of ligand fluorescence on the cell membrane; dissociation after two washing steps, frames every 300 s for up to 3 hr, average of 50 cells; kon from a regression of apparent rate coefficients at 3.5 and 7 nM with this koff fixed; 37°C, 5% CO2; details: partners not purified
[7] = target: T1, LRP6-mCherry, stably expressed in …; assay: dual-color axial line-scanning fluorescence cross-correlation spectroscopy (axial lsFCS); live NCI-H1703 cells stably expressing LRP6-mCherry, ligand in conditioned medium at varied concentrations, 37°C, 5% CO2, 60 s scans, with background and photobleaching correction, fit of Γ(CL) with Equation 5; details: partners not purified
[8] = target: (Xenopus laevis) xKremen2-mCherry (Xenopus laevis); assay: dual-color axial line-scanning fluorescence cross-correlation spectroscopy (axial lsFCS); live NCI-H1703 cells transiently expressing the receptor (xKremen2-mCherry without or with unlabeled LRP6; apparent affinity with LRP6), ligand in conditioned medium at varied concentrations, 37°C, 5% CO2, 60 s scans, fit of Γ(CL) with Equation 5
[9] = target: xKremen2-mCherry co-expressed with unlabeled LRP6 (Xenopus laevis | human) (UniProt O75581); assay: as above
[10] = target: T5, LRP6-mCherry, transiently expressed in NCI-H1703 cells (human, UniProt O75581 20-1613); assay: as above; details: partners not purified
T5 construct: lipoprotein-receptor related protein 6 (LRP6), human; plasmid pCS2+hLRP6-mCherry (Dörlich et al., 2015); Same construct as m4 in another cell line; receptor density 140 ± 80 per µm^2; also called hLRP6-mCherry; source: NCI-H1703, transiently transfected (pCS2+hLRP6-mCherry, with MesD 1:6), on live cells; not shown: mCherry, C-terminal, kept

[11] = target: T6, LRP6-tdTomato, transiently expressed in NCI-H1703 cells (human, UniProt O75581 20-1613); assay: as above; details: partners not purified
T6 construct: lipoprotein-receptor related protein 6 (LRP6), human; pCS2+hLRP6-tdTomato, made by replacing the mCherry ORF of pCS2+hLRP6-mCherry; Receptor density 106 ± 52 per µm^2; also called hLRP6-tdTomato; source: NCI-H1703, transiently transfected (pCS2+hLRP6-tdTomato, with MesD 1:6), on live cells; not shown: tdTomato, C-terminal, kept

[12] = target: T2, LRP6-mCherry, transiently expressed in …; assay: time-lapse spinning disk confocal imaging of ligand fluorescence on the cell membrane; association: HEK293T cells expressing LRP6-mCherry, conditioned medium with DKK1-eGFP at different concentrations, 37°C, 5% CO2, frames every 100 s for 1 hr, linear regression of apparent rate coefficients; the authors call such measurements on individual cells highly unreliable; details: partners not purified
[13] = target: T1, LRP6-mCherry, stably expressed in …; assay: dual-color axial line-scanning fluorescence cross-correlation spectroscopy (axial lsFCS); live NCI-H1703 cells stably expressing LRP6-mCherry, ligand in conditioned medium at varied concentrations, 37°C, 5% CO2, 60 s scans, with background and photobleaching correction, fit of Γ(CL) with Equation 5; details: partners not purified; remark: listed apart in the source

T1 sequence (O75581 20-1613): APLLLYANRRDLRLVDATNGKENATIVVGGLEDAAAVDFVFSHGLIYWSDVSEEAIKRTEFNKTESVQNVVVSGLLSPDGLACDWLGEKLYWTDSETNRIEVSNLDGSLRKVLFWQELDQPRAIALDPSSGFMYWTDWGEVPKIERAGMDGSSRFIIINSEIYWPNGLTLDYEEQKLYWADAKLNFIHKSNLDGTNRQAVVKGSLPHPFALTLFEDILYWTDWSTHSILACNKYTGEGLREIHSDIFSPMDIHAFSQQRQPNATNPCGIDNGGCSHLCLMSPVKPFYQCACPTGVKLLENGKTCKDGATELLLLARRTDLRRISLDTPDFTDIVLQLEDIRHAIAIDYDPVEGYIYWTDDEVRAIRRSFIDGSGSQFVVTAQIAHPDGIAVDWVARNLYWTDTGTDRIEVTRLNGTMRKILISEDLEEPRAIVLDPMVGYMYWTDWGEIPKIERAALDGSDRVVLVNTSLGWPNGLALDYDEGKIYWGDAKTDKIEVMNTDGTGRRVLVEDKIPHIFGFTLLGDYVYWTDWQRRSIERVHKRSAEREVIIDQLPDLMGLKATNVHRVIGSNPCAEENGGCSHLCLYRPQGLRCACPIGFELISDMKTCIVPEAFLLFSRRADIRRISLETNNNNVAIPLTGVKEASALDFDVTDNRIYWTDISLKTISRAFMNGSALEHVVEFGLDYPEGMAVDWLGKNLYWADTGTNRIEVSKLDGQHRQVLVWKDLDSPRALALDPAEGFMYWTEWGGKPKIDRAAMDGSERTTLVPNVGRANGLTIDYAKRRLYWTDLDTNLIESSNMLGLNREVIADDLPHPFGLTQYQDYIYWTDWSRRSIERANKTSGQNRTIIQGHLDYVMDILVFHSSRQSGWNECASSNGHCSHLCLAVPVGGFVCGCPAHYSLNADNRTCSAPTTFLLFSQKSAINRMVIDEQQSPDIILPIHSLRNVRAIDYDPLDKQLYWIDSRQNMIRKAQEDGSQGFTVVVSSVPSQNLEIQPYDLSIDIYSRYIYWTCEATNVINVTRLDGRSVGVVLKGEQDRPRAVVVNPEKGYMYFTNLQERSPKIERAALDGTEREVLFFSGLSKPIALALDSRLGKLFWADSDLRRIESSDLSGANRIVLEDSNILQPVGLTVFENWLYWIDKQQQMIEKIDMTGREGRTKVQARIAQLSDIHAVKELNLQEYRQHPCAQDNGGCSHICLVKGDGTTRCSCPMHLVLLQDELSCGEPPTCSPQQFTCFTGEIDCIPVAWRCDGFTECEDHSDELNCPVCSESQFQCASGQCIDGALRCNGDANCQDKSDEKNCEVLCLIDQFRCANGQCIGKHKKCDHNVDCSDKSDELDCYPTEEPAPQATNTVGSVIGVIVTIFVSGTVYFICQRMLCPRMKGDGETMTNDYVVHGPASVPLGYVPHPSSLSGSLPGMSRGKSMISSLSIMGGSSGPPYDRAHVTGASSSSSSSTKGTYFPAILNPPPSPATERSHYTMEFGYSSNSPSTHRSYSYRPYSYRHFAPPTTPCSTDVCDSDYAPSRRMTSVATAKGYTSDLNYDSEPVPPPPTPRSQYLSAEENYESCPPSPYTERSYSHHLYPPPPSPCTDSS
LRP6-mCherry, stably expressed in NCI-H1703 cells (human), sequence (O75581 20-1613): as above
T2 sequence (O75581 20-1613): as above
T4 sequence (O75581 20-1613): as above
T5 sequence (O75581 20-1613): as above
T3 sequence (O75581 20-1613): as above
T6 sequence (O75581 20-1613): as above

(Xenopus laevis) xKremen2-eGFP (receptor)
bound fraction of LRP6 receptors FR, corrected assuming an eGFP maturation yield of 0.9 [1]: 0.26
bound fraction of xKremen2 receptors FG, corrected assuming an mCherry maturation yield of 0.5 [1]: 0.18
percent of LRP6 receptors co-diffusing with xKremen2 [1]: 25%
percent of xKremen2 receptors co-diffusing with LRP6 [1]: 15%

B1: human Dickkopf1 fused to eGFP (DKK1-eGFP) (ligand, UniProt O94907 32-266, looked up)
chain: TLNSVLNSNAIKNLPPPLGGAAGHPGSAVSAAPGILYPGGNKYQTIDNYQPYPCAEDEECGTDEYCASPTRGGDAGVQICLACRKRRKRCMRHAMCCPGNYCKNGICVSSDQNHFRGEIEETITESFGNDHSTLDGYSRRTTLSSKMYHTKGQEGSVCLRSSDCASGLCCARHFWSKICKPVLKEGQVCTKHRRKGSHGLEIFQRCYCGEGLSCRIQKDHHQASNSSRLHTCQRH
notes: Dickkopf1 (DKK1), human; also called hDKK1-eGFP
Kd [2]: 100 ± 20 pM
Kd [3]: 490 ± 90 pM
Kd [4]: 90 ± 10 pM
Kd [5]: 100 ± 20 pM
Kd [6]: 400 ± 100 pM
koff [6]: 0.00026 s⁻¹
kon [6]: 670000 M⁻¹ s⁻¹
Kd [7]: 80 ± 10 pM
Kd [8]: 10300 pM
Kd [9]: 540 pM
Kd [10]: 220 ± 20 pM
Kd [11]: 220 ± 30 pM
Kd [12]: 2600 ± 100 pM
koff [12]: 0.0013 s⁻¹
kon [12]: 500000 M⁻¹ s⁻¹

B2: human Dickkopf1 fused to eGFP and a SNAP-tag domain (DKK1-eGFP-SNAP) (ligand, UniProt O94907 32-266, looked up)
chain: B1 chain
notes: Dickkopf1 (DKK1), human; made from pCS2+hDKK1-eGFP by adding a linker and the SNAP-tag gene; SNAP-tag domain is 19.4 kDa; also called hDKK1-eGFP-SNAP; source: conditioned medium
Kd [3]: 460 ± 90 pM

B3: human Dickkopf2 fused to eGFP (DKK2-eGFP) (ligand, UniProt Q9UBU2 34-259, looked up)
chain: KLNSIKSSLGGETPGQAANRSAGMYQGLAFGGSKKGKNLGQAYPCSSDKECEVGRYCHSPHQGSSACMVCRRKKKRCHRDGMCCPSTRCNNGICIPVTESILTPHIPALDGTRHRDRNHGHYSNHDLGWQNLGRPHTKMSHIKGHEGDPCLRSSDCIEGFCCARHFWTKICKPVLHQGEVCTKQRKKGSHGLEIFQRCDCAKGLSCKVWKDATYSSKARLHVCQKI
notes: Dickkopf2 (DKK2), human; also called hDKK2-eGFP
Kd [13]: 260 ± 40 pM
